Experimental data reported in paper PMC3882083 (Nature methods, 2013).

Assays:
[1] = molecular target: 3XFLAG-CDK4 R24C (human, UniProt P11802 1-303, R24C); assay: affinity purification with mass spectrometry
[2] = molecular target: 3XFLAG-CDK4 R24H (human, UniProt P11802 1-303, R24H); assay: affinity purification with mass spectrometry
3XFLAG-CDK4 R24H, sequence (P11802 whole entry R24H): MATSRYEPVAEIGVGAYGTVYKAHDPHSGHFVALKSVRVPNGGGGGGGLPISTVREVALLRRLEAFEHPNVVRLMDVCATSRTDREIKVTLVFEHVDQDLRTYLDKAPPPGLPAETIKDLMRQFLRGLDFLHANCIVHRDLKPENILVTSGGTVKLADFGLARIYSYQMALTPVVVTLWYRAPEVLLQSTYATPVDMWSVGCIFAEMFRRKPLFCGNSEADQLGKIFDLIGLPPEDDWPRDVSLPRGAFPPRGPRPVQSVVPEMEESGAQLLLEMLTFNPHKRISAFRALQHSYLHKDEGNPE

3XFLAG-CDK4 R24C, sequence (P11802 whole entry R24C): as the sequence (P11802 whole entry R24H) above, with H24C counted along it

Row | Binder | fold increase against CDK4 WT [1] | fold increase against CDK4 WT [2]
1 | HSP90AB1 (natural protein) not shown | ≥ 3 fold | ≥ 3 fold
2 | CDC37 co-chaperone (natural protein) MVDYSVWDHIEVSDDEDETHPNIDTASLFRWRHQARVERMEQFQKEKEELDRGCRECKRKVAECQRKLKELEVAEGGKAELERLQAEAQQLRKEERSWEQKLEEMRKKEKSMPWNVDTLSKDGFSKSMVNTKPEKTEEDSEEVREQKHKTFVEKYEKQIKHFGMLRRWDDSQKYLSDNVHLVCEETANYLVIWCIDLEVEEKCALMEQVAHQTIVMQFILELAKSLKVDPRACFRQFFTKIKTADRQYMEGFNDELEAFKERVRGRAKLRIEKAMKEYEEEERKKRLGPGGLDPVEVYESLPEELQKCFDVKDVQMLQDAISKMDPTDAKYHMQRCIDSGLWVPNSKASEAKEGEEAGPGDPLLEAVPKTGDEKDVSV | ≥ 3.9 fold | ≥ 3.9 fold
